The text below walks through data of US20050282743A1, “Molecular interactions in cells” (Arbor Vita Corporation, priority 2001, published 2005).

For assay [1], the target named is GST-Atrophin-1 Interacting Protein PDZ domain 3 (Rattus norvegicus (Rat)), O88382. As to the kind of experiment: G assay titration, PDZ 5 ug/ml.
The target in assay [2] is T1, GST-Connector Enhancer PDZ domain 1 (Homo sapiens (Human)), Q969H4.
T1 chain: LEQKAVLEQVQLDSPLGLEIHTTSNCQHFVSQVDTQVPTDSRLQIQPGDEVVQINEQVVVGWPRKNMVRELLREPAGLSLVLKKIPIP
As to the kind of experiment: G assay titration, PDZ 5 ug/ml.

The target of assay [3] is T2, GST-HEMBA 1003117 PDZ domain 1 (Homo sapiens (Human)), Q96JH8.
T2 chain: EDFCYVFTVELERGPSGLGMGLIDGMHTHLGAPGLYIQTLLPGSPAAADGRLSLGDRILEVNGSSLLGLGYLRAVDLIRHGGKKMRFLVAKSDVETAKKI
The experiment in a line: G assay titration, PDZ 5 ug/ml.

Assay [4] has as its target GST-KIAA1634 PDZ domain 4 (Homo sapiens (Human)), Q5TCQ9. The experiment in a line: G assay titration, PDZ 5 ug/ml.
Assay [5] deals with GST-PSD95 PDZ domain 1 (Homo sapiens). As to the kind of experiment: G assay titration, PDZ 5 ug/ml.
Assay [6] concerns the target GST-KIAA1634 PDZ domain 5 (Homo sapiens (Human)), Q5TCQ9. As to the kind of experiment: G assay titration, PDZ 1 ug/ml.
Assay [7] addresses T3, GST-LIM Protein PDZ domain 1 (Homo sapiens (Human)), Q96HC4.
T3 chain: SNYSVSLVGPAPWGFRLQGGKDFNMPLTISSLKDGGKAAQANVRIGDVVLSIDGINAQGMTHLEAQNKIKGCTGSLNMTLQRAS
The experiment in a line: G assay titration, PDZ 1 ug/ml.

In assay [8] the target is GST-TAX IP2 PDZ domain 1 [GST: P08515]. As to the kind of experiment: G assay titration, PDZ 5 ug/ml.
Assay [9] deals with T4, GST-KIAA1526 PDZ domain 1 (Homo sapiens (Human)), Q9P202.
T4 chain: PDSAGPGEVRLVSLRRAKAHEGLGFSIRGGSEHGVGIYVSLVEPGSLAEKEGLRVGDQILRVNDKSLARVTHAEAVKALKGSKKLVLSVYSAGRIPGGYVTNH
As to the kind of experiment: G assay titration, PDZ 5 ug/ml.

For assay [10], the target named is T5, GST-SITAC-18 PDZ domain 1 (Homo sapiens (Human)), Q9H190.
T5 chain: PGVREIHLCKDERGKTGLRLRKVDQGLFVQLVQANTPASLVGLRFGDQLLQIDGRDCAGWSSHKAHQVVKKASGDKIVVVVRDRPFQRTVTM
The experiment in a line: G assay titration, PDZ 5 ug/ml.

Assay [11] concerns the target T6, GST-FLJ 10324 PDZ domain 1 [GST: P08515].
T6 chain: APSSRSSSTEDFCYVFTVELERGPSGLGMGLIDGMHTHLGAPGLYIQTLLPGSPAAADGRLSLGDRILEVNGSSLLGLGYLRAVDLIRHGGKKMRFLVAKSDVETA
The experiment in a line: G assay titration, PDZ 1 ug/ml.

Assay [12] has as its target T7, GST-MUPP1 PDZ domain 7 (Homo sapiens (Human)), O75970.
T7 chain: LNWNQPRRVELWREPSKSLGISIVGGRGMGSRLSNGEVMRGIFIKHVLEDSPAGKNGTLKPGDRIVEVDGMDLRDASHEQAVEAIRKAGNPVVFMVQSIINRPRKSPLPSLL
As to the kind of experiment: G assay titration, PDZ 5 ug/ml.

The target in assay [13] is T8, GST-FLJ00011 PDZ domain 1 (Homo sapiens (Human)), Q9H5P4.
T8 chain: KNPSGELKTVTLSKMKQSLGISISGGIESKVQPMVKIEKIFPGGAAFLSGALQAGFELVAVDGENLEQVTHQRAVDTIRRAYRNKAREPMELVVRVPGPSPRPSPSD
The experiment in a line: G assay titration, PDZ 5 ug/ml.

Assay [14] concerns the target T9, GST-TIP1 PDZ domain 1 (Table 9 insert) (Homo sapiens (Human)), O14907.
T9 chain: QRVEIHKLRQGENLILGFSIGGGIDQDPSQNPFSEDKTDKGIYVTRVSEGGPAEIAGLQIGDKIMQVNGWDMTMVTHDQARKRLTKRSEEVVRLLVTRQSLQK
As to the kind of experiment: G assay titration, PDZ 5 ug/ml.

Chain of GST-TAX IP2 PDZ domain 1 [GST: P08515] (P08515 whole entry, the tested form may be a part): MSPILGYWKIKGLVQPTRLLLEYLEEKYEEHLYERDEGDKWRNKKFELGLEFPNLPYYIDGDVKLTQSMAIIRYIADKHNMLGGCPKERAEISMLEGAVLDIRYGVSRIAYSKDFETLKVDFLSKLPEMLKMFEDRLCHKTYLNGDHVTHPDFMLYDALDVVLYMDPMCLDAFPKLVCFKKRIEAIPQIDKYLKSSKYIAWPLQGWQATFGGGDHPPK
Chain of GST-KIAA1634 PDZ domain 4 (Homo sapiens (Human)), Q5TCQ9 (Q5TCQ9 844-945): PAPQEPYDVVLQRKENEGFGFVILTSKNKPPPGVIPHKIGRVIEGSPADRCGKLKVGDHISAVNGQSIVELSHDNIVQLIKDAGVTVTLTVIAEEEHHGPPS
Chain of GST-KIAA1634 PDZ domain 5 (Homo sapiens (Human)), Q5TCQ9 (Q5TCQ9 other isoform, or with tags, fused parts or gaps): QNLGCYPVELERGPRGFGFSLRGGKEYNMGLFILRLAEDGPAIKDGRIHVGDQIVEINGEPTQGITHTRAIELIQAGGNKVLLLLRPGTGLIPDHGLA
Chain of GST-Atrophin-1 Interacting Protein PDZ domain 3 (Rattus norvegicus (Rat)), O88382 (O88382 774-865, tags or fused parts left off): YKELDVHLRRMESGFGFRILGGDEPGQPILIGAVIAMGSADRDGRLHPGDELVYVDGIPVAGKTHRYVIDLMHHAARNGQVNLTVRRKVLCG

For the molecule VGTLLLERVIFPSVKIATLV (modifications not checked) [AdenoE4 typ9], the Kd in assay [1] came to 100 nM; in assay [2], 100 nM; in assay [3] it was 300 nM; in assay [4], 200 nM; in [5] it was 100 nM.
With VPGALDYAAFSSALYGESDL (modifications not checked) [a-actinin 2], the figures for the Kd in assay [6], in [7] and in assay [8] were 2000 nM, 2000 nM and 2500 nM, respectively.
In the case of ILNSIQVMRAQMNQIQSVEV (modifications not checked) [ephrin B2], the Kd in assay [9] came to 5000 nM; in [10], 4000 nM.
As to KTMPAAMYRLLTAQEQPVYI (modifications not checked) [MINT-1], the values for the Kd in [11] and in assay [12] were 1000 nM and 1500 nM, respectively.
AWDDSARAAGGQGLHVTAL (modifications not checked) [LPAP]: the values for the Kd in assay [13] and in [14] were 1500 nM and 5000 nM, respectively.
